Here are results for one molecule from US20140086927A1 (FUJITA HEALTH UNIVERSITY, published 2014).

Test [1] concerns the target Fuk85HA44-309 (truncated HA on 293T cells) (Influenza A virus H3N2, …, UniProt P12589 44-309). Nature of the test: flow cytometry on 293T cells expressing truncated HA.
Test [2] has as its target Fuk85HA39-319 (truncated HA on 293T cells) (Influenza A virus H3N2, …, UniProt P12589 39-319). Described as above.

B1: F005-126 antibody (IgG) (antibody, V domains shown)
VH: QVQLVQSGAEVKKPGASVTVSCQVSGYTLTSYGLSWVRQAPGQGLEWVGWINTYDGQTKYVKKFQGRVTMTTHTGTNTAYMEMKSLRSDDTAVYYCARVEGVRGVMGFHYYPMDVWGQGTMVTVSS
VL: QSVLTQPPSVSGAPGQRVTISCTGSSSNIGAGYAVHWYQQLPGTAPKLLISGNSNRPSGVPDRFSGSKSGTSASLAITGLQAEDEADYYCQSYDSSLSGSVFGGGTKLTVLG
notes: also called F5126; F05126
Regarding B1, the binding result in test [1] is listed as “no binding”; in test [2] it was “binds”.
